Our source for the abundance fitness values is the Human Domainome abundance scans (Beltran et al. 2025).

± gives the uncertainty stated by the source.

The labels stand for the following.
B1: Segment polarity protein dishevelled homolog DVL-3, residues 2 to 81; numbered along this chain, Q92997 (parent)
chain: GETKIIYHLDGQETPYLVKLPLPAERVTLADFKGVLQRPSYKFFFKSMDDDFGVVKEEISDDNAKLPCFNGRVVSWLVSA

This data set covers variants of B1. Kind of data set: abundance fitness (aPCA) (normalised: wild type 0, dead -1); higher = more abundant; growth selection in yeast, the domain comes from the species named. As to conditions: Homo sapiens.
For GETKIIYHLDGQETPYLVKLPLPAERVTLADFKGVLQRPSYKFFFKSMDDDFGVVKEEISEDNAKLPCFNGRVVSWLVSA [D61E], the abundance fitness was -0.257 ± 0.062.
As to GETKIIYHLDGQETPYLVKLPLPAERVTLADFKGVLQRPSYKFFFKSMDDDFGVVKEEISHDNAKLPCFNGRVVSWLVSA [D61H], the abundance fitness is -0.695 ± 0.22.
As to GETKIIYHLDGQETPYLVKLPLPAERVTLADFKGVLQRPSYKFFFKSMDDDFGVVKEEISGDNAKLPCFNGRVVSWLVSA [D61G], the abundance fitness is -0.791 ± 0.068.
For GETKIIYHLDGQETPYLVKLPLPAERVTLADFKGVLQRPSYKFFFKSMDDDFGVVKEEISCDNAKLPCFNGRVVSWLVSA [D61C], the abundance fitness is -0.407 ± 0.13.
Then GETKIIYHLDGQETPYLVKLPLPAERVTLADFKGVLQRPSYKFFFKSMDDDFGVVKEEISIDNAKLPCFNGRVVSWLVSA [D61I], with -0.384 ± 0.27.
As for GETKIIYHLDGQETPYLVKLPLPAERVTLADFKGVLQRPSYKFFFKSMDDDFGVVKEEISADNAKLPCFNGRVVSWLVSA [D61A], the figure is -0.578 ± 0.074.
GETKIIYHLDGQETPYLVKLPLPAERVTLADFKGVLQRPSYKFFFKSMDDDFGVVKEEISKDNAKLPCFNGRVVSWLVSA [D61K]: the abundance fitness is -0.984 ± 0.18.
As for GETKIIYHLDGQETPYLVKLPLPAERVTLADFKGVLQRPSYKFFFKSMDDDFGVVKEEISFDNAKLPCFNGRVVSWLVSA [D61F], the abundance fitness was -0.52 ± 0.17.
Then GETKIIYHLDGQETPYLVKLPLPAERVTLADFKGVLQRPSYKFFFKSMDDDFGVVKTEISDDNAKLPCFNGRVVSWLVSA [E57T], with 0.441 ± 0.052; and GETKIIYHLDGQETPYLVKLPLPAERVTLADFKGVLQRPSYKFFFKSMDDDFGVVKVEISDDNAKLPCFNGRVVSWLVSA [E57V], with 0.254 ± 0.049.
On to GETKIIYHLDGQETPYLVKLPLPAERVTLADFKGVLQRPSYKFFFKSMDDDFGVVKYEISDDNAKLPCFNGRVVSWLVSA [E57Y], for which the abundance fitness is -0.222 ± 0.13.
Turning to GETKIIYHLDGQETPYLVKLPLPAERVTLADFKGVLQRPSYKFFFKSMDDDFGVVKSEISDDNAKLPCFNGRVVSWLVSA [E57S], the abundance fitness is -0.137 ± 0.055.
Regarding GETKIIYHLDGQETPYLVKLPLPAERVTLADFKGVLQRPSYKFFFKSMDDDFGVVKQEISDDNAKLPCFNGRVVSWLVSA [E57Q], the abundance fitness worked out at 0.256 ± 0.055.
In the case of GETKIIYHLDGQETPYLVKLPLPAERVTLADFKGVLQRPSYKFFFKSMDDDFGVVKMEISDDNAKLPCFNGRVVSWLVSA [E57M], the abundance fitness was 0.292 ± 0.061.
As for GETKIIYHLDGQETPYLVKLPLPAERVTLADFKGVLQRPSYKFFFKSMDDDFGVVKPEISDDNAKLPCFNGRVVSWLVSA [E57P], the figure is -0.475 ± 0.095.
As for GETKIIYHLDGQETPYLVKLPLPAERVTLADFKGVLQRPSYKFFFKSMDDDFGVVKWEISDDNAKLPCFNGRVVSWLVSA [E57W], the figure is -0.526 ± 0.097; as for GETKIIYHLDGQETPYLVKLPLPAERVTLADFKGVLQRPSYKFFFKSMDDDFGVVKLEISDDNAKLPCFNGRVVSWLVSA [E57L], 0.136 ± 0.05.
As for GETKIIYHLDGQETPYLVKLPLPAERVTLADFKGVLQRPSYKFFFKSMDDDFGVVKNEISDDNAKLPCFNGRVVSWLVSA [E57N], the figure is -0.276 ± 0.14; as for GETKIIYHLDGQETPYLVKLPLPAERVTLADFKGVLQRPSYKFFFKSMDDDFGVVKREISDDNAKLPCFNGRVVSWLVSA [E57R], 0.44 ± 0.038; as for GETKIIYHLDGQETPYLVKLPLPAERVTLADFKGVLQRPSYKFFFKSMDDDFGVVKEEILDDNAKLPCFNGRVVSWLVSA [S60L], -0.502 ± 0.084.
Turning to GETKIIYHLDGQETPYLVKLPLPAERVTLADFKGVLQRPSYKFFFKSMDDDFGVVKEEIFDDNAKLPCFNGRVVSWLVSA [S60F], the abundance fitness is -0.189 ± 0.12.
For the variant GETKIIYHLDGQETPYLVKLPLPAERVTLADFKGVLQRPSYKFFFKSMDDDFGVVKEEIMDDNAKLPCFNGRVVSWLVSA [S60M], the abundance fitness is -0.199 ± 0.078.
As for GETKIIYHLDGQETPYLVKLPLPAERVTLADFKGVLQRPSYKFFFKSMDDDFGVVKEEIRDDNAKLPCFNGRVVSWLVSA [S60R], the abundance fitness was -0.273 ± 0.045.
Then GETKIIYHLDGQETPYLVKLPLPAERVTLADFKGVLQRPSYKFFFKSMDDDFGVVKEEIGDDNAKLPCFNGRVVSWLVSA [S60G], with -0.572 ± 0.055.
As to GETKIIYHLDGQETPYLVKLPLPAERVTLADFKGVLQRPSYKFFFKSMDDDFGVVKEEINDDNAKLPCFNGRVVSWLVSA [S60N], the abundance fitness was -0.111 ± 0.12.
For the variant GETKIIYHLDGQETPYLVKLPLPAERVTLADFKGVLQRPSYKFFFKSMDDDFGVVKEEITDDNAKLPCFNGRVVSWLVSA [S60T], the abundance fitness is -0.005 ± 0.055.
Take GETKIIYHLDGQETPYLVKLPLPAERVTLADFKGVLQRPSYKFFFKSMDDDFGVVKEEIADDNAKLPCFNGRVVSWLVSA [S60A]: the abundance fitness is -0.152 ± 0.051.
Consider GETKIIYHLDGQETPYLVKLPLPAERVTLADFKGVLQRPSYKFFFKSMDDDFGVVKEEIKDDNAKLPCFNGRVVSWLVSA [S60K], for which the abundance fitness was 0.032 ± 0.067.
On to GETKIIYHLDGQETPYLVKLPLPAERVTLADFKGVLQRPSYKFFFKSMDDDFGVVKEEIDDDNAKLPCFNGRVVSWLVSA [S60D], for which the abundance fitness was -0.32 ± 0.098.
As for GETKIIYHLDGQETPYLVKLPLPAERVTLADFKGVLQRPSYKFFFKSMDDDFGVVKEEICDDNAKLPCFNGRVVSWLVSA [S60C], the abundance fitness was determined as 0.1 ± 0.072.
In the case of GETKIIYHLDGQETPYLVKLPLPAERVTLADFKGVLQRPSYKFFFKSMDDDFGVVKEEIPDDNAKLPCFNGRVVSWLVSA [S60P], the abundance fitness was -0.922 ± 0.16.
For the variant GETKIIYHLDGQETPYLVKLPLPAERVTLADFKGVLQRPSYKFFFKSMDDDFGVVKEEIHDDNAKLPCFNGRVVSWLVSA [S60H], the abundance fitness was 0.137 ± 0.095.
As to GETKIIYHLDGQETPYLVKLPLPAERVTLADFKGVLQRPSYKFFFKSMDDDFGVVKEEIIDDNAKLPCFNGRVVSWLVSA [S60I], the abundance fitness is -0.325 ± 0.14.
Then GETKIIYHLDGQETPYLVKLPLPAERVTLADFKGVLQRPSYKFFFKSMDDDFGVVKEEIWDDNAKLPCFNGRVVSWLVSA [S60W], with -0.115 ± 0.057; and GETKIIYHLDGQETPYLVKLPLPAERVTLADFKGVLQRPSYKFFFKSMDDDFGVVKEEIEDDNAKLPCFNGRVVSWLVSA [S60E], with -0.269 ± 0.063.
